# The supplement of paper PMC12042874
# ± gives the uncertainty stated by the source.
# Assay: amyloid nucleation score (Sup35N fusion, yeast selection) (log enrichment); library NNK3; higher = more nucleation; inactive = no reads after selection
# How it was run: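 Yeast lacking psi expressed peptides of 20 random codons fused to Sup35N, received 100 μM copper sulfate for 24 hours, and were then grown for 7 days at 30°C on medium lacking adenine and uracil. Illumina sequencing of input and output plasmid inserts provided the reads. Nucleation scores are DiMSum log enrichments of output over input, centred on the mode of non-aggregating sequences. Any sequence with under 100 input reads was excluded.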
row,Substance,amyloid nucleation score
1,SRWEKSFALICAS,inactive
2,GYRYTVHGIFEGVLWLTSAG,inactive
3,THIGFFFNCIL,2.56 ± 0.082
4,HYQHVFLAFNSVLQSPILRE,inactive
5,CVFKTNVNGLMEEVLSGFKY,inactive
6,SRIIVRN,inactive
7,LVCFPGTSFAGVCDW,inactive
8,SFCYN,inactive
9,KCLLGLSLVRAKRSKLWMW,inactive
10,MWWGLAPIFWLLITTTDCGY,inactive
11,SILRVGKERRSGYSSGEEY,inactive
12,SLGNITVPAT,inactive
13,SNDHKITD,inactive
14,GVGNPGWAVLM,inactive
15,NWFTMSNFMFYRTFCFIYSS,inactive
16,CLNNVLLASPPNCAGNL,inactive
17,VKKLSKVHDSCGMREVLGCH,-0.36 ± 1.1
18,RTTKSNYTVLLDQNIPLSPT,inactive
19,VTAMSMNVAQCPAYPR,inactive
20,FLTWRIGVVS,inactive
21,KVWSLYLYVRSTYRL,inactive
22,ANTGFLLSWNGFLLMCLELD,inactive
23,EIVTRERIPEWYSLLLMGLP,inactive

row,Substance,amyloid nucleation score
1,ANLIYPRLEFCISMCTQMAE,inactive
2,HKGALVWYFYCRANFADYLY,inactive
3,LAITNIEWSLFIQWTLI,inactive
4,VFYIVMMLVRAPIFFNGVPT,inactive
5,VDMSNFRANVVTHSPIGGLR,inactive
6,LLKRKLIVAFKKSMLFDFMV,inactive
7,GTNDSDFESWNVFKCINCLA,inactive
8,RYLSMELSQEYLFLVVSLVW,inactive
9,HFLRRTDFYTANWA,inactive
10,KDVSPVCNVPMSGWWTTAFL,inactive
11,ATLYNSVRLC,inactive
12,DLFKCGRGHVIFVLSRLLIS,-0.459 ± 1.1
13,VSIRAVRYKVLGLFWSSTHV,inactive
14,KAIDFADDELRPIYMTFRVQ,inactive
15,NLDLSGGESASWRNFSFFLK,inactive
16,YYLVSHWWFGQCFDHVVS,inactive
17,IVVFLDLFRDTFGLGLPTKG,inactive
18,SLNILWRSVCFTGCERGYLG,0.763 ± 0.2
19,VLRRSYYRVSRPELPIWSN,-0.153 ± 1.1
20,YILGKSKSPFLLKCAVKI,inactive
21,LLVLRGYSDVIFKNTLYGNE,inactive
22,WHTDWRW,inactive
23,EVSFDNLRGWH,inactive

row,Substance,amyloid nucleation score
1,RGTSSQ,inactive
2,IDGSYAFSKKPDPNSVKYIM,inactive
3,NRYGGSAQGHPMWVTTSREW,inactive
4,ALQFATVDGKVLSI,inactive
5,FVVKYNWRYDLLIPYQMDLI,inactive
6,FMKCDTTSAAGCRRSSSRDK,inactive
7,MYETVR,inactive
8,NVVWIYTIFRGVCFGYRRWA,inactive
9,FNANI,0.12 ± 0.34
10,VTRMLFVHCGTSVNVNS,inactive
11,HFLFVMSCPKWAVRFLAFVD,inactive
12,WDVTNLAGFLNDPVSLKLS,inactive
13,QSSLVDGWKNLTKVRCGDYS,inactive
14,FFAILHLRVNARMCYGNGAY,0.435 ± 0.48
15,LDHRGIRFFN,inactive
16,LFVFIYSVSGLLDDGVGLGG,inactive
17,VMSFVFNTSLWSMYIRIGSP,inactive
18,TTEFKIDR,inactive
19,IIYFRVISIGYSWGIVRDRF,inactive
20,TRLWDKD,inactive
21,SWLFVDLYSFHFCFSNYVSY,inactive
22,SMRYVTLKPNF,inactive
23,WTRCRLTDFYHSGMSYHHSG,inactive

row,Substance,amyloid nucleation score
1,RHLTVWLL,inactive
2,YMSSYRKEDCGQWLDEWPMA,inactive
3,HPVYMVSTRWRRGGSDWV,inactive
4,VLLKRL,inactive
5,VPISHLFSLVLVRPRMTSRY,inactive
6,YNRMHMDCTKRIE,inactive
7,NCLGPWPCLTTILYLRSLEF,inactive
8,FFVFSRLVYPWCGMFFLSLK,inactive
9,LGTWFWVVVG,inactive
10,VQNNFGVSNAGNGLCWGCIC,2.65 ± 0.051
11,MYLIYGHGTIIICTESVSVH,0.361 ± 0.15
12,KTIFFMKGLVMSDDICSDRR,inactive
13,KIVLDRARDWQL,0.094 ± 0.41
14,MWMLLFGCSSCWWSCNRLSP,-0.239 ± 0.8
15,SDEKNKNVLGAYRVIMCVVY,inactive
16,HEYSSKILMM,inactive
17,WMCIEGIANLESAFNRRFST,inactive
18,FMEYFTCGV,inactive
19,SLDLENILSAE,inactive
20,IYCFRGNHFDCLGAGNMLQV,inactive
21,RSRLAGFSNYFCMKCVIAAG,inactive
22,SISRLCVRMRIYKRTVAIYL,inactive
23,QGDRLENKTLQVLHEKARSR,inactive

row,Substance,amyloid nucleation score
1,LVVSVCKK,inactive
2,LGSIRSSKCKNLVICIGPMC,2.41 ± 0.051
3,EGARSGKENGSGKPYRPLGV,0.528 ± 0.22
4,FFKYYG,inactive
5,VDYLRVLWQAQFGNFELWSR,inactive
6,LPPFAWPRMIPWWGRAKVIS,inactive
7,RSVVLIPDLFGNL,inactive
8,VKLMASEHLSCIGRI,inactive
9,KRVKWNCRGLDDSMLFFWVV,inactive
10,MYRNECSMLSSIHLTVPSGN,inactive
11,YAKCSDVY,inactive
12,ILFVAGIETFSALSFRWTGV,inactive
13,SYCGSSASSASTLEIRYTLA,0.875 ± 0.12
14,SLDIWGCSKGRRWSGFKI,inactive
15,NNYTSPMHRFRSNLFHCVSA,inactive
16,KFFCW,inactive
17,DHLWIPPWLYAPAMLWSWML,inactive
18,SALLNRLSVSLYWMYGMSFM,inactive
19,EVSGYINMR,inactive
20,ECLMDGSTAFSMMFFYNYML,inactive
21,LRTGCSYNSREGHNTLGRSS,inactive
22,GRVMVWIFIFMMGGMQANLS,inactive
23,HSRRHCFLVSWE,inactive

row,Substance,amyloid nucleation score
1,SLGEKMNVASLQAVMSC,inactive
2,YNRYV,inactive
3,LSNDF,inactive
4,GCLYGSSSV,inactive
5,PTDIGGNPAGPGEFLIGTGW,inactive
6,SWGMLSY,inactive
7,VITMGMSLSSVSGLRDYLQE,1.36 ± 0.12
8,NISLN,inactive
9,HLLPLYTKSIVGYTTNAIPN,inactive
10,MRRKDKNIRVDYRVAGGYRD,inactive
11,VLYGRSGVVEANRC,inactive
12,QQIFRDNCPVGSRFIFLSR,inactive
13,SQSGELFSDMMVLLG,inactive
14,HRSRISTWMWG,inactive
15,WMVGVKRSW,inactive
16,LGFMKSFLGYSY,inactive
17,EILVVVPIAGEMSIVFMRGW,inactive
18,LSECLRHGSDDTRFEVVGQD,1.34 ± 0.097
19,AQPVNMDKSWG,inactive
20,RLYAALMFSSVRLCACVALV,inactive
21,SGRVTRWITSAMVARN,inactive
22,NLYMGRPKRRVIGYLVACFA,inactive
23,LRKPYLEY,inactive

row,Substance,amyloid nucleation score
1,FIVVQGIAPCGFTS,inactive
2,CRNESLACSKMSPSQRRSYT,inactive
3,GTDWLDMVILGEPFYMYLST,inactive
4,VYLHIVHCMGYVNDQGRNRS,inactive
5,IVQLHDIVDS,-0.168 ± 0.9
6,VTVSPWLFFVWNDGLCSARL,1.05 ± 0.096
7,TPHFYLIYALGISLIFWFVE,inactive
8,LRYASTSSFLVFQRDTLANE,inactive
9,HGLRALLRSLSLYLVLCFTV,inactive
10,KTRERGLSTGDGTQNEIAGY,-0.123 ± 0.51
11,AIRGMNAERNR,inactive
12,IGDNCCIWMLDVHSVTLVSE,0.329 ± 0.2
13,HPHTHVR,inactive
14,AGESEISVRMEKSHSGVASR,-0.436 ± 1.7
15,YNDCNIN,inactive
16,WSQEATTM,inactive
17,FRQLQGTSMLYLATPWS,inactive
18,ISMSNHWLLLVICNDEWDLP,-0.06 ± 0.7
19,VKISMNYKTQLTWLLFAWIL,inactive
20,VNTFNFWCI,2.7 ± 0.081
21,MVVLAVGRVKLAVYGCRKHG,inactive
